{
  "source": "patent US20100015650",
  "tested_on": "BRB1 tyrosine kinase substrate peptide",
  "sequence (chain, as listed by the source)": "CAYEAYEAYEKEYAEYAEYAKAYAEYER",
  "data": [
    {"substance": "TRKB (NTRK2)", "values": [
      {"measurement": "Signal to Noise ratio with BRB1 Peptide (TR-FRET kinase assay; kinase 0.5 nM)", "result": 28}
    ]},
    {"substance": "TRKC (NTRK3)", "values": [
      {"measurement": "Signal to Noise ratio with BRB1 Peptide (TR-FRET kinase assay; kinase 0.5 nM)", "result": 6.4}
    ]},
    {"substance": "YES", "values": [
      {"measurement": "Signal to Noise ratio with BRB1 Peptide (TR-FRET kinase assay; kinase 0.25 nM)", "result": 28}
    ]},
    {"substance": "FGR", "values": [
      {"measurement": "Signal to Noise ratio with BRB1 Peptide (TR-FRET kinase assay; kinase 0.1 nM)", "result": 29.3}
    ]},
    {"substance": "EphA7", "values": [
      {"measurement": "Signal to Noise ratio with BRB1 Peptide (TR-FRET kinase assay; kinase 0.5 nM)", "result": 17.2}
    ]},
    {"substance": "TRKA (NTRK1)", "values": [
      {"measurement": "Signal to Noise ratio with BRB1 Peptide (TR-FRET kinase assay; kinase 0.5 nM)", "result": 23.2}
    ]},
    {"substance": "BLK", "values": [
      {"measurement": "Signal to Noise ratio with BRB1 Peptide (TR-FRET kinase assay; kinase 0.5 nM)", "result": 31}
    ]},
    {"substance": "LYNa", "values": [
      {"measurement": "Signal to Noise ratio with BRB1 Peptide (TR-FRET kinase assay; kinase 0.5 nM)", "result": 32.5}
    ]}
  ]
}
